From a protein production outcome set (Wang et al. 2014)

Experiment: label from the status in PepcDB records
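Further: failed if final PepcDB status was selected cloned or expressed and not failed if soluble or beyond.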

With “MLRHIVLLILLSSEVRGVCNRIPQGASGPRSPVDDNFKILIDGNPETYVPEHQYNVSLSCPINMKFVSFTLVVEAEDPSAAFGGQDMTGHFELLGVGDTRFSTSCENMVENTNTNAKIYIAVSWIAPRNPDSGCVLIKAGVVQHRDVWFLDDGFLTKRICPEEIDELNSLTPPLETCCACDEAKYEIVLERKWARNTHWKDFPSEDWRTRLGEVIGASHSHSYRYWAYGGRASKGMKELAEHGATRTLENEIRENTQNGEVRTIIKAPGIPYRPKTFGTTLANARLDPVHHQISLAAKIDPSPDWILGVAGLELCLSNCTWLERKSSDEPQVPPDVVRRITSSYPSDHRSPFYDDTGAPMKPLATLYLTRKKLYIRECEEVLVPQEGPLECAVHPWNEWTNCSTRCGQGYSHRQRSFKNPNLAANFNCDRRLEEFRQCQGTQCGAAEEELEGEEPGLGMENPPSSGSMAECQLTNWGEWSPCTKTCGRGSSTRTRDYYNPQARQRCLSVMRIPLEETRECIGSDCGGTIPDNGELDGFPEPDVFGETDHGGYMGKTTSWNSKQEHSSLGSGNQAWNRKPYNSWKDKSLSNPRDNAQESPNLPFDQIENPQRPAYNPSDNMGGYDKGFPPTNSYSNDKLVGNRPGYNDFNSDYNNKDAYNDYTTPSFTSRTPFGSRYPNQQETVEGNTNDINGNYNVVQDYCFEKPYASTLPCFAKPVVESNYWFYDHEDHECKIFTTDNCDQNRNRFRTLTACEGTCLQPQINMERSENDAMDLYGRRSYDQKQTRDHISKQEVDPMINQKIGPMTYRQQEVDPMEKPVKQVILENPCRRPGADTTHPDAVGMAAEQIKAFKSPKLEENKY” the protein production was “failed”.

With “MSQTEPPEDLMQYEAMAQDALRGVVKAALKKAAAPGGLPEPHHLYITFKTKAAGVSGPQDLLSKYPDEMTIVLQHQYWDLAPGETFFSVTLKFGGQPKRLSVPYAALTRFYDPSVQFALQFSAPEIIEDEPEPDPEPEDKANQGASGDEGPKIVSLDQFRKKLEHHHHHH” the protein production was “not failed”.

For “MASSKQADPQTDARPLPQDFETALAELESLVSAMENGTLPLEQSLSAYRRGVELARVCQDRLAQAEQQVKVLEGDLLRPLDPAALDDE”, the protein production was “not failed”.

For “PRSRTKISLEALGILQSFIHDVGLYPDQEAIHTLSAQLDLPKHTIIKFFQNQRYHVKH”, the protein production was “not failed”.

In the case of “RHLVKVPCRIGASHTTGRLILPTLLANLSAVSDRFDFQVTLANSAEILTAMSQHKLDFGLVEKPLVTDQLNRLPFGHDELVHAGDFASPLWLLREPNSGVRHYTNAFLKARNIQPAQVMVIHSNQII”, the protein production is reported as “failed”.

For “VTSDPGTAAPVKRTAEQSRSLIVDAAGRAFATRPYREITLKDIAEDAGVSAPLIIKYFGSKEQLFDALVDFRAAAEIVFSGPLDGLGERMVSMFARPLEPYKPLSLNILFMSGPSEESSRKLRANYSAQMIDALAERLPGRDARLRAELVMSMLTGLAVMRRKMMQEHATGTPEEVVAHYAPLVQELLDG”, the protein production was “not failed”.

With “MPEDLNWAIGGEAGDGIDSTGKIFAQALSRAGRHVFTSKDFASRIRGGYTAYKVRTSVDRVESVVDRLDILIALTERTIHENEDELHEDSVIIYDGERSTMQDVEVPGDATALEVPLKRLAEDAGGAIMLNVVALGAACEVTGFPIENLDESLEKRFGDKGEAIVENNKEAARKGQHYVQEEYGEFDYDMETTDEDYVLLNGDEAIGMGAIAAGCRFYSGYPITPATDVMEYMTGRVDQFGGKVVQAEDELSAINMALGAARAGARAMTATSGPGIDLMTETFGLVATSETPLVICDVMRSGPSTGMPTKQEQGDLNMTLYGGHGEIPRFVVAPTTVSECFWKTVEAFNLAEKYQTPVFLVSDLAMAVTEQTFSPETFDMDEVEIDRGKVVDENEIDAWLDEKGRFQAHFAAADGVSPRAFPGTTDGAHMTTGLEHDELGRRTEDTDVRIEQVDKRQRKVETAREQEDFDYREFGDSDADTLVISWGSNEGALREGLTLLEEDGYDVRFLSVPYIFPRPDLSEEIEAAEDVIVVECNATGQFADVIEHDVLERVQRINKYNGVRFKADELATEIKQTLDTPPEATQ” the protein production was “failed”.

In the case of “MSLTAIHRPTWVSVDLDAAAHNLQEIREWTKAKKVYAVLKADGYGLGAIPLAKAFQETASADALIVSNLDEALELRQADLTLPIWVLGAWDYSDLKLFIDHDIVITIPSLAWLQNLPDFEGTLKVSLAIDTGMTRIGFDKADEISAAKKIIDKNPQLDLFSVYTHFATADEAGEKSKAYFEEQLRRWQELTINQGFDPSLFSMANSATCIWHHDDPRISFAAIRPGQLISGVNVSNGELKMPPNLHLERIFSVCSEIADVRFVKKDQSLSYGASERMPEDGYVATLPFGYNDGWLRRMQKSSVIINGKRMPIIGRITMDQTMVKLDRKYPIGTRVTLIGKDGGEQITVEEVANYSHTIVDEIQTTLAPRIKRIYTGDLAEVIGANYGEGHHHHHH”, the protein production is reported as “not failed”.

For “MELSRGASAPDPDDVRPLKPCLLRRNHSRDQHGVAASSLEELRSKACELLAIDKSLTPITLVLAEDGTIVDDDDYFLCLPSNTKFVALACNEKWTYNDSDGGTAWVSQESFEADEPDSRAGVKWKNVARQLKEDLSSIILLSEEDLQALIDIPCAELAQELCQSCATVQGLQSTLQQVLDQREEARQSKQLLELYLQALEKEGNILSNQKESKAALSEELDAVDTGVGREMASEVLLRSQILTTLKEKPAPELSLSSQDLESVSKEDPKALAVALSWDIRKAETVQQACTTELALRLQQVQSLHSLRNLSARRSPLPGEPQRPKRAKRDSS”, the protein production was “not failed”.

With “MNTVDEDIKFKEVPGITNILLLSSDARPGEDVSRSDSIMILTIDNINKKLKVTSLMRDMLVKIDGHGEEKLNHAFAYGGPTKTIETIQNNFGIKLNNYVIVDFNAFVKVIDAINGIEVTVKDYELDELNKYILDGGGSEEDLLPSPGTYNLNGYQALSYARIRKVGNGEYERTERQRAVLQIALEKVKDMSTVKLVSLLNELFPYVKTNISLGNAMDYGFTALNVGKKCNFEIEQFRVPLDSISKGGIINNKGWVFVIDKVETSKALQEFIFNDNKNYEPDTSNFDSIIEQYFNDYDIKDDTTHPDYEYVPSINTNGNFEKPKNNSGNSSNNNSNNKVEKPSNQGNSVNSSNKPSNGSTSTGNNSTEKPNTSEKPSIPQETPTEKPLEHHHHHH” the protein production was “failed”.

In the case of “MQIFVNGETIETEVITLNLLLEELGYEGNWLATAVNAEVVPIDARSRCVLHEGDKIEILSPMQGG”, the protein production is reported as “failed”.

For “MALMTNKTRALLIGGHGKVALLATPMLIDASVQVTSMYRNPDHRSEIEALGATTLERDVTTLSVEDWADLLKDFDVVVWSAGNGGKNGADATYAIDRDAAIASIDGAASLGEKAPRYIMVSYIGSSTHTIDPSASFYPYAESKKAADEHLSSTNLDYLILAPAALTLDEVNGVEVIADTNEAAAGRTTSRVLVAEVITEFVVRDFPQTRVLPFVDGLEHHHHHH”, the protein production was “failed”.

In the case of “MSGIIATYLIHDDSHNLEKKAEQIALGLTIGSWTHLPHLLQEQLKQHKGNVIHVEELAEHEHTNSYLRKKVKRGIIKIEYPLLNFSPDLPAILTTTFGKLSLDGEVKLIDLTFSDELKKHFPGPKFGIDGIRNLLQVHDRPLLMSIFKGMIGRNIGYLKTQLRDQAIGGVDIVKDDEILFENALTPLTKRIVSGKEVLQSVYETYGHKTLYAVNLTGRTFDLKENAKRAVQAGADILLFNVFAYGLDVLQSLAEDDEIPVPIMAHPAVSGAYSASKLYGVSSPLLLGKLLRYAGADFSLFPSPYGSVALEKEEALAISKYLTEDDASFKKSFSVPSAGIHPGFVPFIVRDFGKDVVINAGGGIHGHPNGAQGGGKAFRTAIDATLQNKPLHEVDDINLHSALQIWGNPSYEVKL”, the protein production is reported as “not failed”.

With “MQRISVIVPMYNEARHITRTLDSVLRAARAATLDCELIVVDNGSTDQGPQRARELGARVLLCPGIGIGALRNRGAAVATGDSLAFLDADIEVPGNWLQLWQQAHAEQRAEVFALDCAAPASAPWFARAWQRRSLAGDPQPRLLPWMPTPNLCLQRAWFERVGGFNEQLRTGEDKDFGLRLHAAGARQLSLPQPQVLHWGYEASWAEWAGKERWRQGSHVQLLKGSGLSLRLLRFPLLCLACALLSLVALLCLLAGLPGAAGLCLLLGALAPLALAVRQGLRQRDPLFVLQLWLLHWVRLHLGALALVQALFNRSAERPDRG” the protein production was “failed”.

With “MKGITSLGSKWFVEFEKNNVHNVYDRIAEHFTKTRYRIWPGVELFLKQTSPLDTVLDVGCGNGKNLISYRNLFCIGIDRCVPLVKTCKQRQLETAVADILELPFQSEKFDIVLCIAVLHHLCTRERRILAIQELGRVLRPGGSCLLYVWAANENDGKDEVKNTKAREKMRFLDENKQEALIPWVVIDHEKKATQLEKNLKQPSTFTLERYYHLYRQGELEEECLQSNCFHIQHSYYEQSNWCVVLDKKS” the protein production was “not failed”.

For “MNPLDLIAKRAYPYETEKRDKTYLALNENPFPFPEDLVDEVFRRLNSDALRIYYDSPDEELIEKILSYLDTDFLSKNNVSVGNGADEIIYVMMLMFDRSVFFPPTYSCYRIFAKAVGAKFLEVPLTKDLRIPEVNVGEGDVVFIPNPNNPTGHVFEREEIERILKTGAFVALDEAYYEFHGESYVDFLKKYENLAVIRTFSKAFSLAAQRVGYVVASEKFIDAYNRVRLPFNVSYVSQMFAKVALDHREIFEERTKFIVEERERMKSALREMGYRITDSRGNFVFVFMEKEEKERLLEHLRTKNVAVRSFREGVRITIGKREENDMILRELEVFK”, the protein production was “not failed”.

For “MSVSAELSQTIINNQVTSVLILDESLMIRYANPAAEQLFSQSAKRLMHQSLNHLVQHSSLDLQLLTQPLQSGQSITDSDVTLVIDSKPLMLEVTVSPISWHKELLLLAEMRTIG”, the protein production was “failed”.

In the case of “MKIMIFICGEGLGHTSRCLALGKELLNAGHEIKFGAYGYSKELVEKTGYTAQEIPSEIKLVGKAGSLDLTGSIEATLKSAQLLGGPKLLKLLREFKPDVVVSDSYYLGTLAAMVLKLPVYLIINQSNMEEFFKNRGLEHHHHHH”, the protein production is reported as “not failed”.

In the case of “MKEDAGNPLHLTSLNHVSVLCRSVDESMNFYQKVLGFIPIRRPESLNFEGAWLFGHGIGIHLLCAPEPEKLPKKTAINPKDNHISFQCESMGVVEKKLEEMGIDYVRALVEEGGIQVDQLFFHDPDGFMIEICNCDSLPVVPLVGEMARSCSRVKLHQMVQPQPQTQIHQVVYP”, the protein production is reported as “failed”.

With “MTKTKFEKVLLIVNPKAGQGDLHTNLTKIVPPLAAAFPDLHILHTKEQGDATKYCQEFASKVDLIIVFGGDGTVFECTNGLAPLEIRPTLAIIPGGTCNDFSRTLGVPQNIAEAAKLITKEHVKPVDVAKANGQHFLNFWGIGLVSEVSNNIDAEEKAKLGKIGYYLSTIRTVKNAETFPVKITYDGQVYEDEAVLVMVGNGEYLGGIPSFIPNVKCDDGTLDIFVVKSTGIQAFKDYIGKKLFEDSNENDIFHVKAKSIHIETEEEKEVDTDGESSLHTPCQIELLQGHFTMIYNPAVV” the protein production was “not failed”.

In the case of “SLRKERARSAEEPWTQNQQKLLELALQQYPRGSSDCWDKIARCVPSKSKEDCIARYKLLV”, the protein production is reported as “not failed”.

For “MSLQSQPIALELIVRNHPGVMTHICGLFARRAFNVDGILCLPMKNSDKSRIWLLVQKDERLMQMVSQVEKLEDVKEVRFSDDLRVFEQMESYLN”, the protein production was “not failed”.

For “MTSAAEITAAVRQLYNTYPFPPEPLLDEPPPGYNWRWSWPAAYSFCTGRYPSQLDVAILDAGCGTGVGTEYLAHLNPQAKITALDLSEAALAIACERCRRSGATNVQFHHLSLEEVAQLGQTFQMINCVGVLHHLPEPQRGIQALADVLAPGGIVHIFVYGEYGRWEIKLMQQAIALLQGSDRHNYREGVAIGRQLFAALPENNRLKKREQERWSLENQRDECFADMYVHPQEIDYTIASLFELIRASGLEFIGFSNPQVWQLERLLGSQPELLQRAQQLDPIQQYQLIECLDPEAMTHFEFFLAKPPLPRHDWAADRELLAAIPWRHPCIDGWPGACVFNCHYEVIHLNQAEQEFLNAASGKATVAELLAQQPDFNLAEVRSLLARHLLLLGVKELEHHHHHH”, the protein production was “failed”.
